Patent US7199218B1, “ICBP90 polypeptide and its fragments and polynucleotides coding for said polypeptides and applications for diagnosing and treating cancer” (Institut National de la Sante et de la Recherche Medicale …, priority 1999, dated 2007)

Legend:
[1] = test system: ICB DNA sequence (ICB1/ICB2 boxes of the human topoisomerase IIα promoter); assay: Gel retardation (acrylamide gel) binding of protein to 32P-labelled ICB oligonucleotides; conditions: 1 μg protein, 1 ng 32P-labelled oligonucleotide, competition with non-labelled oligonucleotides
Description: To test the ability of the 59 kDa protein to bind specifically to the ICB1 and/or ICB2 boxes, three tandem copies of ICB2 (ICB2X3, sequences described above) were labelled at the terminal end with 32 P phosphore using the T4 polynucleotide kinase (New England Biolabs) and […] (160 mCi/mmol, ICN Irvine, Calif., USA). To examine the specificity of the binding, oligonucleotides containing only one copy of the CCAAT box were synthesized:
The ICBP-59 protein (1 μg) was incubated with 1 ng of oligonucleotide and labelled at its terminal end by phosphorous ^32P in 12% glycerol, 12 mM HEPES-NaOH (pH 7.9), 60 mM KCl, 4 mM Tris-HCl (pH 7.9), 100 ng BSA, 0.6 mM DTT, and 100 ng poly(dI/dC) in 20 μl (Inouye et al., 1994). After a 30-minutes incubation at room temperature, the reaction mix was loaded in 6% polyacrylamide gels. In competition experiments, the quantity indicated of non-labelled oligonucleotides were added to the reaction mix 10 minutes before the addition of proteins. To examine the binding properties of ICBP90 with regard to the ICB2 box, we used the same protocol except that labelled oligonucleotide contained only one copy of the CCAAT sequence as described below:
Binding specificity was studied using a non-labelled nucleotide containing a GC box of the human topoisomerase IIa promoter: […]

[2] = molecular target: T1, TIP60 (Tat Interactive Protein, 60 kDa) (Homo sapiens, UniProt Q92993); assay: Double-hybrid technique, protein-protein interaction; type: binding
T1 construct: expressed in transfected cells; own knowledge
Description: The TIP60 protein has very recently been described as being a coactivator of the nuclear receptor, especially the receptor for the androgens (Brady M E et al., 1999).

T1 sequence (Q92993 whole entry, species assumed): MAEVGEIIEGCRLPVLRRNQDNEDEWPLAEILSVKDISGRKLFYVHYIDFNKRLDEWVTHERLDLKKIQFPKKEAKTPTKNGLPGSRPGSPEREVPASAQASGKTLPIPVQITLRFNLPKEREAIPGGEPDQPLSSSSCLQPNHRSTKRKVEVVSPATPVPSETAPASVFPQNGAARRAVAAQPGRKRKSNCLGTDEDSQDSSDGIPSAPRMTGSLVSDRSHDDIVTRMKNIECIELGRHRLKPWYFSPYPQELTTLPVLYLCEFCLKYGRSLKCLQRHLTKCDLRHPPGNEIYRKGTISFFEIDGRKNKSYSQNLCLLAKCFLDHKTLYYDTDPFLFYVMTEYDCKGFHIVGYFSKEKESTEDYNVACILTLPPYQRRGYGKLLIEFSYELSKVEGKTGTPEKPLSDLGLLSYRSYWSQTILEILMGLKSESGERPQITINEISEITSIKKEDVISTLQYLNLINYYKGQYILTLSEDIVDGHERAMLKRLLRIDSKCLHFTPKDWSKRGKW

| interaction with TIP60 [2] | Molecule | ability to bind specifically an ICB DNA sequence [1] |
| --- | --- | --- |
| existence of interactions | ICBP90: Inverted CCAAT Box Binding Protein of 90 kDa, 793 amino acids, SEQ ID No.2 (protein, listed as Homo sapiens) MWIQVRTMDGRQTHTVDSLSRLTKVEELRRKIQELFHVEPGLQRLFYRGKQMEDGHTLFDYEVRLNDTIQLLVRQSLVLPHSTKERDSELSDTDSGCCLGQSESDKSSTHGEAAAETDSRPADEDMWDETELGLYKVNEYVDARDTNMGAWFEAQVVRVTRKAPSRDEPCSSTSRPALEEDVIYHVKYDDYPENGVVQMNSRDVRARARTIIKWQDLEVGQVVMLNYNPDNPKERGFWYDAEISRKRETRTARELYANVVLGDDSLNDCRIIFVDEVFKIERPGEGSPMVDNPMRRKSGPSCKHCKDDVNRLCRVCACHLCGGRQDPDKQLMCDECDMAFHIYCLDPPLSSVPSEDEWYCPECRNDASEVVLAGERLRESKKNAKMASATSSSQRDWGKGMACVGRTKECTIVPSNHYGPIPGIPVGTMWRFRVQVSESGVHRPHVAGIHGRSNDGSYSLVLAGGYEDDVDHGNFFTYTGSGGRDLSGNKRTAEQSCDQKLTNTNRALALNCFAPINDQEGAEAKDWRSGKPVRVVRNVKGGKNSKYAPAEGNRYDGIYKVVKYWPEKGKSGFLVWRYLLRRDDDEPGPWTKEGKDRIKKLGLTMQYPEGYLEALANREREKENSKREEEEQQEGGFASPRTGKGKWKRKSAGGGPSRAGSPRRTSKKTKVEPYSLTAQQSSLIREDKSNAKLWNEVLASLKDRPASGSPFQLFLSKVEETFQCICCQELVFRPITTVCQHNVCKDCLDRSFRAQVFSCPACRYDLGRSYAMQVNQPLQTVLNQLFPGYGNGR | identical from top to bottom to that observed for ICBP-59 |
|  | ICBP-59: 59 kDa C-terminal fragment, amino acids 263 to 793 of SEQ ID NO. 2 (protein, listed as Homo sapiens) DDSLNDCRIIFVDEVFKIERPGEGSPMVDNPMRRKSGPSCKHCKDDVNRLCRVCACHLCGGRQDPDKQLMCDECDMAFHIYCLDPPLSSVPSEDEWYCPECRNDASEVVLAGERLRESKKNAKMASATSSSQRDWGKGMACVGRTKECTIVPSNHYGPIPGIPVGTMWRFRVQVSESGVHRPHVAGIHGRSNDGSYSLVLAGGYEDDVDHGNFFTYTGSGGRDLSGNKRTAEQSCDQKLTNTNRALALNCFAPINDQEGAEAKDWRSGKPVRVVRNVKGGKNSKYAPAEGNRYDGIYKVVKYWPEKGKSGFLVWRYLLRRDDDEPGPWTKEGKDRIKKLGLTMQYPEGYLEALANREREKENSKREEEEQQEGGFASPRTGKGKWKRKSAGGGPSRAGSPRRTSKKTKVEPYSLTAQQSSLIREDKSNAKLWNEVLASLKDRPASGSPFQLFLSKVEETFQCICCQELVFRPITTVCQHNVCKDCLDRSFRAQVFSCPACRYDLGRSYAMQVNQPLQTVLNQLFPGYGNGR | can specifically bind an ICB DNA sequence |
